Among the data in paper PMC8178248 are stoichiometry N values, retold here.

Values joined by “and” are separate entries in the source; they are usually repeats but may differ in a detail not shown here. Equal entries are not always repeated.

The target in test [1] is DrdV restriction-modification enzyme (Deinococcus wulumuqiensis 479). The experiment in a line: cryo-EM structure.
For test [2] the target is unchanged. In words: negative stain EM.
Test [3] shares this target. The experiment in a line: SEC.
Test [4] shares this target. In words: cryo-EM structure. This is another data set of the same source.

Turning to DrdV restriction-modification enzyme, the stoichiometry N in test [1] was 2; in test [2] it was 4; in test [3], 4; in test [4] it was 3 and 4.
